Where no end group is shown, it is not given here.
Target: T1, LINGO2-GFP on HEK293 transfectants (mouse, UniProt Q3URE9 28-606)
T1 construct: LINGO2, mouse, from pCMV3-mLINGO2-GFP; also called GFP-LINGO2; pCMV3-mLINGO2-GFP; source: HEK293, transfected, on cells
T1 sequence (looked up): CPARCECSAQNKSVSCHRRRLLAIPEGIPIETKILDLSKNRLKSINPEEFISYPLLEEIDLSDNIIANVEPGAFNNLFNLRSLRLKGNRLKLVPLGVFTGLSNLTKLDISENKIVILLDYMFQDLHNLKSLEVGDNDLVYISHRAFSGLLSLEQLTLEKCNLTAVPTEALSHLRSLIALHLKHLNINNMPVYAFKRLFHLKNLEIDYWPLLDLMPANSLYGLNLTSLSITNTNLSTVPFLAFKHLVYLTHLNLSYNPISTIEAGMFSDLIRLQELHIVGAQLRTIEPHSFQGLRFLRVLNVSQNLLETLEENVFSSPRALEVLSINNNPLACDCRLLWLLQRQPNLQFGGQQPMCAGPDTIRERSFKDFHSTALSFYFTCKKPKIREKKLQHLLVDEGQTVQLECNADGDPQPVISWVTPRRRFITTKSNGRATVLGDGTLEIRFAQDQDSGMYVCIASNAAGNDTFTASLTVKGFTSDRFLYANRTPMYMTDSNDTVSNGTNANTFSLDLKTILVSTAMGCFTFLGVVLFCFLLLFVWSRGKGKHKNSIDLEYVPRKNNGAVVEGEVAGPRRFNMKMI
Experiment: flow cytometry on cells; HEK293 transfected with GFP-labeled receptors, 24 h later incubated with PBS or 3 ug Alexa Fluor 647 labeled soluble ligand for 16 h at 4 C; double positive (GFP and AF-647) cells counted
Settings: one partner purified

B1: TFF3-647 (murine recombinant TFF3 labeled with Alexa Fluor 647) (ligand, mouse, UniProt Q62395 23-81, looked up)
chain: ADYVGLSPSQCMVPANVRVDCGYPSVTSEQCNNRGCCFDSSIPNVPWCFKPLQETECTF
modifications: ends and bridges not checked; also: Alexa Fluor 647 label, site not given here
notes: Trefoil factor 3, mouse, recombinant (Peprotech); A commercial recombinant TFF3 is probably the mature protein (surmise); source: bought: Peprotech
- fold increase in double-positive cells compared to PBS or IL-2-647: 12 fold

Source: article PMC6764942, “TFF3 interacts with LINGO2 to regulate EGFR activation for protection against colitis and gastrointestinal helminths” (Nature Communications, 2019)
